B1: Twister Ribozyme (parent)
chain: AACACUGCCAAUGCCGGUCCCAAGCCCGGAUAAAAGUGGAGGGGGCGG

Variants of: B1
Assay: self-cleavage, relative activity (ratio to wild type); higher = more cleavage; co-transcriptional

Row | Variant | self-cleavage
1 | AACACUGCCAAUGUCGGUCCCAAGCCCGUAUAAAAGUGGAGGGGGCGG [C14U G29U] | 1.09
2 | AACACUGCCAAUGUCGGUCCCAAGCCCGAAUAAAAGUGGAGGGGGCGG [C14U G29A] | 1.06
3 | AACACUGCCAAUGCAGGUCCCAAGCCGGGAUAAAAGUGGAGGGGGCGG [C15A C27G] | 0.0735
4 | AACACUGCCAAUGGCGGUCCCAAGCCCGGAUAAAAGUGGAGGGGGCAG [C14G G47A] | 0.0923
5 | AACACUGCCAAUGCAGGUCCCAAGCCCGGGUAAAAGUGGAGGGGGCGG [C15A A30G] | 0.492
6 | AACACUGCCAAUGUCGGUCCCAAGCCCGGAUAUAAGUGGAGGGGGCGG [C14U A33U] | 1.07
7 | AACACUGCCAAUGCAGGUCCCAAGCCCGGAUAAAAGUGGAGGAGGCGG [C15A G43A] | 0.299
8 | AACACUGCCAAUGUCGGUCCCAAGCCCGGAUAAAAGUGGAGGGGGGGG [C14U C46G] | 1.04
9 | AACACUGCCAAUGUCGGUCCCAAGCCCGGAUAAAAGUGGAGGGGGUGG [C14U C46U] | 1.01
10 | AACACUGCCAAUGUCGGUCCCAAGCCCGGCUAAAAGUGGAGGGGGCGG [C14U A30C] | 1.08
11 | AACACUGCCAAUGUCGGUCCCAAGCCCGGUUAAAAGUGGAGGGGGCGG [C14U A30U] | 1.06
12 | AACACUGCCAAUGCAUGUCCCAAGCCCGGAUAAAAGUGGAGGGGGCGG [C15A G16U] | 0.34
13 | AACACUGCCAAUGCACGUCCCAAGCCCGGAUAAAAGUGGAGGGGGCGG [C15A G16C] | 0.264
14 | AACACUGCCAAUGCAAGUCCCAAGCCCGGAUAAAAGUGGAGGGGGCGG [C15A G16A] | 0.351
15 | AACACUGCCAAUGUCGGUCCCAAGCCCGGAUAAAAGUGGAGGGCGCGG [C14U G44C] | 0.983
16 | AACACUGCCAAUGUCGGUCCCAAGCCCGGAUAAAAGUGGAGGGUGCGG [C14U G44U] | 1.15
17 | AACACUGCCAAUGUCGGUCCCAAGCCCGGAUAAAAGUGGAGGGAGCGG [C14U G44A] | 1.08
18 | AACACUGCCAAUGUCGGUCCCAAGCCCGGAUAAAAGUGGAUGGGGCGG [C14U G41U] | 0.719
19 | AACACUGCCAAUGUCGGUCCCAAGCCCGGAUAAAAGUGGACGGGGCGG [C14U G41C] | 0.343
20 | AACACUGCCAAUGUCGGUCCCAAGCCCGGAUAAAAGUGGAAGGGGCGG [C14U G41A] | 0.698
21 | AACACUGCCAAUGCAGGUCCCAAGCCCGAAUAAAAGUGGAGGGGGCGG [C15A G29A] | 0.793
22 | AACACUGCCAAUGCAGGUCCCAAGCCCGGAUAAAAGUGAAGGGGGCGG [C15A G39A] | 0.156
23 | AACACUGCCAAUGCAGGUCCCAAGACCGGAUAAAAGUGGAGGGGGCGG [C15A C25A] | 0.0919
24 | AACACUGCCAAUGCAGGUCCCAAGUCCGGAUAAAAGUGGAGGGGGCGG [C15A C25U] | 0.436
25 | AACACUGCCAAUGUCGGUCCCAAGCCCGGAUAAAAGUGGGGGGGGCGG [C14U A40G] | 0.21
26 | AACACUGCCAAUGUCGGUCCCAAGCCGGGAUAAAAGUGGAGGGGGCGG [C14U C27G] | 0.108
27 | AACACUGCCAAUGUCGGUCCCAAGCCCGGAUGAAAGUGGAGGGGGCGG [C14U A32G] | 1.07

Row | Variant | self-cleavage
28 | AACACUGCCAAUGUCGGUCCCAAGCCCGGAUCAAAGUGGAGGGGGCGG [C14U A32C] | 1.03
29 | AACACUGCCAAUGGCGGUCCCAAGCCCGGAUAAAAGUGGAGGGGGCGU [C14G G48U] | 0.128
30 | AACACUGCCAAUGCAGGUCCCAGGCCCGGAUAAAAGUGGAGGGGGCGG [C15A A23G] | 0.141
31 | AACACUGCCAAUGCAGGUCCCAUGCCCGGAUAAAAGUGGAGGGGGCGG [C15A A23U] | 0.0658
32 | AACACUGCCAAUGCAGGUCCCAAGCCCGGAUAAAAGUAGAGGGGGCGG [C15A G38A] | 0.4
33 | AACACUGCCAAUGCAGGUCCCAAGCCCGGAUAAAAGUCGAGGGGGCGG [C15A G38C] | 0.452
34 | AACACUGCCAAUGUCGGUCCCAAGCCCGGAUAAAAGUGGAGGGGGCAG [C14U G47A] | 0.947
35 | AACACUGCCAAUGUCGGUCGCAAGCCCGGAUAAAAGUGGAGGGGGCGG [C14U C20G] | 0.2
36 | AACACUGCCAAUGUCGGUCCCAAGCCCGGAUAAUAGUGGAGGGGGCGG [C14U A34U] | 0.951
37 | AACACUGCCAAUGUCGGUCCCAAGCCCGGAUAACAGUGGAGGGGGCGG [C14U A34C] | 0.461
38 | AACACUGCCAAUGUCGGUCCCAAGGCCGGAUAAAAGUGGAGGGGGCGG [C14U C25G] | 0.627
39 | AACACUGCCAAUGUCGGUCCCAAGCUCGGAUAAAAGUGGAGGGGGCGG [C14U C26U] | 0.403
40 | AACACUGCCAAUGCAGGUCCCAAGCCCGGAUAACAGUGGAGGGGGCGG [C15A A34C] | 0.156
41 | AACACUGCCAAUGCAGGUCCCAAGCCCGGAUAAGAGUGGAGGGGGCGG [C15A A34G] | 0.422
42 | AACACUGCCAAUGCAGGUCCCAAGCCCAGAUAAAAGUGGAGGGGGCGG [C15A G28A] | 0.865
43 | AACACUGCCAAUGCAGGUCCCAAGCCCGGAUAAAAGUGGAGGGGGCGU [C15A G48U] | 0.573
44 | AACACUGCCAAUGCAGGUCCCAAGCCCGGAUAAAAGUGGAGGGGGCGA [C15A G48A] | 0.528
45 | AACACUGCCAAUGCAGGUCCCAAGCCCGGAUAAAAGUGGAGGGGGCGC [C15A G48C] | 0.715
46 | AACACUGCCAAUGUCGGUCCCAAGCCCGGAUAAAAGAGGAGGGGGCGG [C14U U37A] | 0.83
47 | AACACUGCCAAUGUCGGUCCCAAGCCCGGAUAAAAGGGGAGGGGGCGG [C14U U37G] | 0.845
48 | AACACUGCCAAUGUCGUUCCCAAGCCCGGAUAAAAGUGGAGGGGGCGG [C14U G17U] | 0.373
49 | AACACUGCCAAUGUCGCUCCCAAGCCCGGAUAAAAGUGGAGGGGGCGG [C14U G17C] | 0.152
50 | AACACUGCCAAUGCAGGGCCCAAGCCCGGAUAAAAGUGGAGGGGGCGG [C15A U18G] | 0.089
51 | AACACUGCCAAUGUCGGUGCCAAGCCCGGAUAAAAGUGGAGGGGGCGG [C14U C19G] | 0.518
52 | AACACUGCCAAUGCAGGUCCCAAGCACGGAUAAAAGUGGAGGGGGCGG [C15A C26A] | 0.0686
53 | AACACUGCCAAUGCAGGUCCCAAGCGCGGAUAAAAGUGGAGGGGGCGG [C15A C26G] | 0.108
54 | AACACUGCCAAUGCAGGUCGCAAGCCCGGAUAAAAGUGGAGGGGGCGG [C15A C20G] | 0.0632
